Article PMC3154542 (Growth Factors (Chur, Switzerland), 2011)

B1: recombinant human bone morphogenetic protein 13 (rhBMP13) (ligand, UniProt Q6KF10 336-455, looked up)
chain: TAFASRHGKRHGKKSRLRCSKKPLHVNFKELGWDDWIIAPLEYEAYHCEGVCDFPLRSHLEPTNHAIIQTLMNSMDPGSTPPSCCVPTKLTPISILYIDAGNNVVYKQYEDMVVESCGCR
notes: bone morphogenetic protein 13 (BMP13, also known as GDF6), human, mature form; homodimer by non-reducing SDS-PAGE
B2: BMPRII (BMP receptor 2 extracellular domain linked to the human IgG Fc region) (Fc fusion, UniProt Q13873 27-150, looked up)
chain: SQNQERLCAFKDPYQQDLGIGESRISHENGTILCSKGSTCYGLWEKSKGDINLVKQGCWSHIGDPQECHYEECVVTTTPPSIQNGTYRFCCCSTDLCNVNFTENFPPPDTTPLSPPHSFNRDET
notes: BMP receptor type 2 (BMPR2, BMPRII), type II receptor, extracellular domain; printed as 'BMPRII' without '-Fc' in the list of Fc fusion proteins; also called BMPR2; BMPR-2; source: synthesized in-house
B3: ACVR2B-Fc (activin receptor type-2B extracellular domain linked to the human IgG Fc region) (Fc fusion, UniProt Q13705 19-137, looked up)
chain: SGRGEAETRECIYYNANWELERTNQSGLERCEGEQDKRLHCYASWRNSSGTIELVKKGCWLDDFNCYDRQECVATEENPQVYFCCCEGNFCNERFTHLPEAGGPEVTYEPPPTAPTLLT
notes: activin receptor type-2B (ACVR2B), type II receptor, extracellular domain; source: synthesized in-house
B4: recombinant human bone morphogenetic protein 2 (rhBMP2) (ligand, UniProt P12643 283-396, looked up)
chain: QAKHKQRKRLKSSCKRHPLYVDFSDVGWNDWIVAPPGYHAFYCHGECPFPLADHLNSTNHAIVQTLVNSVNSKIPKACCVPTELSAISMLYLDENEKVVLKNYQDMVVEGCGCR
notes: bone morphogenetic protein 2, human, mature domain; homodimer by non-reducing SDS-PAGE; source: CHO cells, purified (as in Wang et al. 1990)
B5: recombinant human bone morphogenetic protein 12 (rhBMP12) (ligand, UniProt Q7Z4P5 322-450, looked up)
chain: TALAGTRTAQGSGGGAGRGHGRRGRSRCSRKPLHVDFKELGWDDWIIAPLDYEAYHCEGLCDFPLRSHLEPTNHAIIQTLLNSMAPDAAPASCCVPARLSPISILYIDAANNVVYKQYEDMVVEACGCR
notes: bone morphogenetic protein 12 (BMP12, also known as GDF7), human, mature form; homodimer by non-reducing SDS-PAGE
B6: ALK6-Fc (activin receptor-like kinase 6 extracellular domain linked to the human IgG Fc region) (Fc fusion, UniProt O00238 14-126, looked up)
chain: KKEDGESTAPTPRPKVLRCKCHHHCPEDSVNNICSTDGYCFTMIEEDDSGLPVVTSGCLGLEGSDFQCRDTPIPHQRRSIECCTERNECNKDLHPTLPPLKNRDFVDGPIHHR
notes: activin receptor-like kinase 6 (ALK6), type I BMP receptor, extracellular domain; source: synthesized in-house

Assays:
[1] = biological target: the molecule itself; experiment: non-reducing SDS-PAGE; purified proteins on 12% polyacrylamide gels under non-reducing against reducing (β-mercaptoethanol) conditions, Coomassie blue staining
[2] = biological target: B2; experiment: BLI; receptor extracellular domain-Fc chimeras immobilised on anti-human IgG Fc biosensor tips (ForteBio Octet RED); sixfold serial dilutions of human BMPs in solution; association 10 min, dissociation 30 min; global fit to a 1:1 Langmuir model; conditions: both partners purified
[3] = biological target: T1, ALK3-Fc (activin receptor-like kinase 3 extracellular domain linked to the human IgG Fc region) (UniProt P36894 24-152); experiment: as above; conditions: both partners purified
T1 construct: activin receptor-like kinase 3 (ALK3), type I BMP receptor, extracellular domain; source: bought: R&D Systems

[4] = biological target: B5; experiment: as above; conditions: both partners purified
[5] = biological target: B1; experiment: as above; conditions: both partners purified
[6] = biological target: B4; experiment: as above; conditions: both partners purified

T1 sequence (P36894 24-152): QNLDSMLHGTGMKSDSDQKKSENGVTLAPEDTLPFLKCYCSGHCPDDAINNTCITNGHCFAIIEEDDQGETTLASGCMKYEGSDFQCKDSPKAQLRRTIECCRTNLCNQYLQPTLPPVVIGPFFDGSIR

Row | Kd [3] | koff [3] | kon [3] | Kd [4] | koff [4] | kon [4] | Kd [5] | koff [5] | kon [5] | Binder | stoichiometry N [1] | further results
1 | 1.7 nM | 0.0084 s⁻¹ | 4.97e+06 M⁻¹ s⁻¹ |  |  |  |  |  |  | B1 | 2 | Kd [2]: 28.1 nM; koff [2]: 0.16 s⁻¹; kon [2]: 5.7e+06 M⁻¹ s⁻¹
2 |  |  |  | 52.1 nM | 0.322 s⁻¹ | 9.26e+06 M⁻¹ s⁻¹ |  |  |  | B2 |  | 
3 |  |  |  | 1 nM | 0.0138 s⁻¹ | 1.29e+07 M⁻¹ s⁻¹ | 1.6 nM | 0.0041 s⁻¹ | 2.59e+06 M⁻¹ s⁻¹ | B3 |  | 
4 |  |  |  |  |  |  |  |  |  | B4 | 2 | 
5 | 3.4 nM | 0.0164 s⁻¹ | 5.07e+06 M⁻¹ s⁻¹ |  |  |  |  |  |  | B5 | 2 | 
6 |  |  |  | 0.6 nM | 0.004 s⁻¹ | 6.48e+06 M⁻¹ s⁻¹ | 0.5 nM | 0.0038 s⁻¹ | 7.69e+06 M⁻¹ s⁻¹ | B6 |  | Kd [6]: 1.6 nM; koff [6]: 0.0064 s⁻¹; kon [6]: 4.28e+06 M⁻¹ s⁻¹
